Measured values: US7691605

Target: Lz-linker-DHFR 106-187 (yeast) (UniProt P03069)
Assay: cell-based or functional assay

For “Lz-linker-DHFR 1-105 (from UniProt P03069 253-274)”, the cell survival in DHFR selection media lacking glycine, hypoxanthine and thymidine (-GHT) was < 90 % viability.
